The source of these data is the supplement of paper PMC10126150.

The data set deals with ATP. Put plainly: switch fluorescence ratio, 500 uM ATP over buffer (Cy3 cluster intensity, sum of 5 cycles each) (fold (ratio)); higher = stronger signal-on switching upon ATP binding; sequences stand for … in TCGTCGGCAGCGTCAGATGTGTATAAGAGACAGTTTTTTTTTTTTTTTTTTTTTTTTT…TC. Conditions: aptamer strand: ATP DNA aptamer (quencher-CACCTGGGGGAGTATTGCGGAGGAAGG + anchor), 100 nM annealed; ATP concentration: 500 uM. The essentials:
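Per cluster, summed Cy3 intensity from the target cycles was divided by that from the buffer cycles to give the fluorescence ratio, then averaged per switch-domain sequence. Clusters outside 100-1000 RFU were excluded. The Cy3-labelled switching-strand clusters, on a modified Illumina MiSeq flow-cell, were annealed to 100 nM quencher-labelled ATP aptamer and imaged in selection buffer, then after 15 min with 500 uM ATP at 22 °C, for five cycles with NaOH stripping and re-annealing between them.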

± gives the standard deviation of the averaged measurements.
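Note: ATP exposure 15 min at 22 °C before imaging.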

With ATGGCTGTGG, the switch fluorescence ratio was 0.9852 ± 0.0085.

On to ATGGCTTAGC, for which the switch fluorescence ratio amounted to 0.983 ± 0.015.

With ATGGGAAACG, the switch fluorescence ratio came out at 0.995 ± 0.014.

For ATGGGAATTT, the switch fluorescence ratio is 0.996 ± 0.028.

As to ATGGGACGGG, the switch fluorescence ratio amounted to 1 ± 0.019.

Turning to ATGGGACGTT, the switch fluorescence ratio came to 0.983 ± 0.037.

Regarding ATGGGAGATG, the switch fluorescence ratio was 0.983 ± 0.0045.

In the case of ATGGGAGGAT, the switch fluorescence ratio was 1.018 ± 0.0027.

ATGGGAGGGT: the switch fluorescence ratio was 0.997 ± 0.061.

ATGGGCGAAC: the switch fluorescence ratio worked out at 1.63 ± 0.82.

With ATGGGCGGGG, the switch fluorescence ratio came to 0.9947 ± 0.0065.

For ATGGGCTATA, the switch fluorescence ratio came to 1.03 ± 0.094.

For ATGGGCTCAG, the switch fluorescence ratio came to 1.005 ± 0.0033.

For ATGGGCTCCG, the switch fluorescence ratio was 0.974 ± 0.015.

For the sequence ATGGGCTGAG, the switch fluorescence ratio came out at 0.992 ± 0.017.

As to ATGGGCTGG, the switch fluorescence ratio came out at 0.975 ± 0.031.

With ATGGGCTTCT, the switch fluorescence ratio amounted to 1.018 ± 0.0091.

For the sequence ATGGGCTTGC, the switch fluorescence ratio was found to be 0.994 ± 0.083.

ATGGGGACTT: the switch fluorescence ratio came out at 0.979 ± 0.035.

On to ATGGGGAGCG, for which the switch fluorescence ratio worked out at 0.992 ± 0.031.

For the sequence ATGGGGATAC, the switch fluorescence ratio came to 1.06 ± 0.026.

As to ATGGGGCTTG, the switch fluorescence ratio was 1.05 ± 0.099.

With ATGGGGGAGC, the switch fluorescence ratio was 0.981 ± 0.011.

As for ATGGGGGATA, the switch fluorescence ratio is 0.973 ± 0.041.

Turning to ATGGGGGTGC, the switch fluorescence ratio amounted to 0.99 ± 0.026.

As to ATGGGGTAAT, the switch fluorescence ratio came to 1.01 ± 0.028.

Regarding ATGGGGTCTG, the switch fluorescence ratio stood at 1.05 ± 0.095.

ATGGGGTGTA: the switch fluorescence ratio was determined as 1 ± 0.03.

As for ATGGGGTGTT, the switch fluorescence ratio was found to be 1 ± 0.024.

For ATGGGTCAAT, the switch fluorescence ratio turned out to be 1 ± 0.014.

For the sequence ATGGGTCTCT, the switch fluorescence ratio amounted to 0.997 ± 0.017.

Turning to ATGGGTCTGC, the switch fluorescence ratio was 1.16 ± 0.31.

ATGGGTGATC: the switch fluorescence ratio is 1.01 ± 0.011.

In the case of ATGGGTGGG, the switch fluorescence ratio stood at 0.965 ± 0.032.

On to ATGGGTGTAC, for which the switch fluorescence ratio is 1.01 ± 0.016.

As for ATGGGTGTCC, the switch fluorescence ratio came to 1.004 ± 0.0056.

ATGGTACACC: the switch fluorescence ratio amounted to 1.04 ± 0.013.

For ATGGTAGCTT, the switch fluorescence ratio is 1 ± 0.024.

Turning to ATGGTAGGGG, the switch fluorescence ratio is 0.986 ± 0.014.

Take ATGGTAGGTG: the switch fluorescence ratio worked out at 1.04 ± 0.083.

Turning to ATGGTATCAG, the switch fluorescence ratio came out at 1.007 ± 0.0084.

Take ATGGTATGGT: the switch fluorescence ratio stood at 0.9855 ± 0.0081.

For the sequence ATGGTCAGGG, the switch fluorescence ratio came out at 0.987 ± 0.026.

In the case of ATGGTCGGAT, the switch fluorescence ratio came out at 0.9804 ± 0.0098.

For ATGGTCGGTC, the switch fluorescence ratio turned out to be 0.989 ± 0.036.

In the case of ATGGTGAATT, the switch fluorescence ratio is 1.016 ± 0.0044.

Regarding ATGGTGCGGG, the switch fluorescence ratio was found to be 1.02 ± 0.033.

As to ATGGTGGGAG, the switch fluorescence ratio came out at 0.992 ± 0.0061.

On to ATGGTTAGGT, for which the switch fluorescence ratio was 1.02 ± 0.029.

As for ATGGTTCCTG, the switch fluorescence ratio amounted to 1.03 ± 0.078.

Consider ATGGTTTAA, for which the switch fluorescence ratio was 1 ± 0.044.

Consider ATGGTTTACG, for which the switch fluorescence ratio is 1.05 ± 0.077.

In the case of ATGGTTTTGT, the switch fluorescence ratio amounted to 0.959 ± 0.022.

As for ATGGTTTTTT, the switch fluorescence ratio was determined as 1 ± 0.032.

For ATGTAAAGAC, the switch fluorescence ratio worked out at 1.05 ± 0.04.

On to ATGTAAAGCA, for which the switch fluorescence ratio is 1.02 ± 0.036.

With ATGTAAAGGT, the switch fluorescence ratio was 1.04 ± 0.058.

In the case of ATGTAAATGC, the switch fluorescence ratio was found to be 0.995 ± 0.02.

ATGTAACATG: the switch fluorescence ratio was 1 ± 0.027.

With ATGTAAGTGC, the switch fluorescence ratio is 0.967 ± 0.064.

Regarding ATGTAATATA, the switch fluorescence ratio worked out at 1.02 ± 0.06.

Regarding ATGTAATATT, the switch fluorescence ratio is 1.01 ± 0.033.

Regarding ATGTAATCAT, the switch fluorescence ratio worked out at 1.01 ± 0.024.

For ATGTAATTTA, the switch fluorescence ratio stood at 1 ± 0.017.

On to ATGTACGATA, for which the switch fluorescence ratio was 1.14 ± 0.043.

As to ATGTAGCATT, the switch fluorescence ratio was 1.21 ± 0.0026.

In the case of ATGTAGCTGG, the switch fluorescence ratio was determined as 1.07 ± 0.033.
